The target in assay [1] is T1, syntaxin-4 ΔTM (residues 1–275) (human, UniProt Q12846 1-275).
T1 sequence (looked up): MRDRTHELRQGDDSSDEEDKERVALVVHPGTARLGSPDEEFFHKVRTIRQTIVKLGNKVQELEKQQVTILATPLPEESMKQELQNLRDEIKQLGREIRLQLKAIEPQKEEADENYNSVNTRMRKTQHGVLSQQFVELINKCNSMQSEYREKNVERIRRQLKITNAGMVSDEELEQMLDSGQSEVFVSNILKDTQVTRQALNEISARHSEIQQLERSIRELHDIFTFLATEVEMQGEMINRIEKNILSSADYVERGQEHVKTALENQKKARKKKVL
The assay can be described thus: FRET or BRET. On the technique in general: Bioluminescence resonance energy transfer reports proximity on the nanometre scale.

For assay [2], the target named is T2, Munc13-4 (full-length human, recombinant) (human, UniProt Q70J99 1-1090).
T2 sequence (looked up): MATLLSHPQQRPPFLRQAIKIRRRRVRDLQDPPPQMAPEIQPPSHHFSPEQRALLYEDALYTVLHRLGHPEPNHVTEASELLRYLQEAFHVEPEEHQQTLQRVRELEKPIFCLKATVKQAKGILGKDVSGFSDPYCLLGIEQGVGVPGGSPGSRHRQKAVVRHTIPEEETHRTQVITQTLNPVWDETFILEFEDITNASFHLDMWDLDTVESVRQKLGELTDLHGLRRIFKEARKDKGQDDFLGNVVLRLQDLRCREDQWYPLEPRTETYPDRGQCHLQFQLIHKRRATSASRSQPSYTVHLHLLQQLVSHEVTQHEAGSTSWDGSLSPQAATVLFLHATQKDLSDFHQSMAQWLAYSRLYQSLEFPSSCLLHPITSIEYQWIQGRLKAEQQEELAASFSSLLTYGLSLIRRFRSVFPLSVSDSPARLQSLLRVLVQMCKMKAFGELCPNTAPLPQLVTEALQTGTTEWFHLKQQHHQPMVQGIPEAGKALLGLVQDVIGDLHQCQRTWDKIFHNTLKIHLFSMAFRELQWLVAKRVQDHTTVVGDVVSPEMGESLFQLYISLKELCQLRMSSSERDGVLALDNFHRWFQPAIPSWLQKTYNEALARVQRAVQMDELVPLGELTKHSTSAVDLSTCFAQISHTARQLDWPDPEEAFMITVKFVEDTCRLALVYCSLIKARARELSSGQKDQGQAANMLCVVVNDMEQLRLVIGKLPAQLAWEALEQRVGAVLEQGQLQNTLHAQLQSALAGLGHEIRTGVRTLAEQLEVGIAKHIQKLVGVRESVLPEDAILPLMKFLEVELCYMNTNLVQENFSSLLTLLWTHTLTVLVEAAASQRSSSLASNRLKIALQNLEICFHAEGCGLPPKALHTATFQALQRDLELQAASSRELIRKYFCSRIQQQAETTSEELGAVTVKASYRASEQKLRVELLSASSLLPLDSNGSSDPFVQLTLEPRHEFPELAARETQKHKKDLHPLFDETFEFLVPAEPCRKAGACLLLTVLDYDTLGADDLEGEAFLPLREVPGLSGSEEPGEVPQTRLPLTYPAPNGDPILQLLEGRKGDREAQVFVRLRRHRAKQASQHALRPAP
The assay can be described thus: pull-down.

B1: VAMP-7 SNARE motif (residues 123–187, A131C) labeled with BODIPY FL (domain or fragment, human, UniProt P51809 123-187, looked up)
chain: LDKVMETQC(BODIPY FL)QVDELKGIMVRNIDLVAQRGERLELLIDKTENLVDSSVTFKTTSRNLARAMCMKNL
As for B1, the binding result in assay [1] was “binds”.

B2: GST-Rab27a (full-length) (natural protein, human, UniProt P51159 1-221, looked up)
chain: MSDGDYDYLIKFLALGDSGVGKTSVLYQYTDGKFNSKFITTVGIDFREKRVVYRASGPDGATGRGQRIHLQLWDTAGQERFRSLTTAFFRDAMGFLLLFDLTNEQSFLNVRNWISQLQMHAYCENPDIVLCGNKSDLEDQRVVKEEEAIALAEKYGIPYFETSAANGTNISQAIEMLLDLIMKRMERCVDKSWIPEGVVRSNGHASTDQLSEEKEKGACGC
Turning to B2, the binding result in assay [2] was “binds”.

B3: GST-VAMP-7 SNARE motif (residues 123–187) (domain or fragment, human, UniProt P51809 123-187, looked up)
chain: LDKVMETQAQVDELKGIMVRNIDLVAQRGERLELLIDKTENLVDSSVTFKTTSRNLARAMCMKNL
Regarding B3, the binding result in assay [2] was “binds”.
